From the Immune Epitope Database (IEDB) come the findings set out here.

Holding throughout (test): IEDB peptide-MHC binding, purified MHC/competitive/radioactivity; filed as Kd, often an IC50 or EC50 that approximates it; ≥ and ≤ were set here for values at or beyond the usual limits of such assays
For assay [1], the target named is HLA-A*68:01.
The target in assay [2] is HLA-A*03:01.
The target of assay [3] is HLA-A*33:01.
Assay [4] concerns the target HLA-A*11:01.
In assay [5] the target is HLA-A*31:01.
Setting [6] is: source organism: Vaccinia virus WR.
The mark [7] stands for this setting: source organism: SARS coronavirus Tor2.
[8] abbreviates: source organism: Dengue virus 4 Philippines/H241/1956.
Setting [9] is: source organism: Dengue virus 2 Jamaica/1409/1983.
Setting [10] is: source organism: Dengue virus 1 Brazil/97-11/1997.
Where [11] appears, read: source organism: Dengue virus 3 Martinique/1243/1999.
[12] abbreviates: source organism: Dengue virus 1 Singapore/S275/1990.
Setting [13] is: source organism: Dengue virus 2 Peru/IQT2913/1996.

Usually Kd stands for the free concentration of one partner at which half of the binding sites on the other are occupied at equilibrium, for simple one-to-one binding.

As for VFKGFSDKVR, the dissociation constant Kd in assay [1] (setting [6]) is at least 26800 nM; in assay [2] (setting [6]), at least 70100 nM; in assay [3] (setting [6]) it was 925 nM; in assay [4] (setting [6]) it was 2640 nM; in assay [5] (setting [6]), 201 nM.

For PTKRCRLLK, the Kd was at least 22700 nM in assay [1] (setting [6]); 1090 nM in assay [2] (setting [6]); at least 23700 nM in assay [3] (setting [6]); 1040 nM in assay [4] (setting [6]); 5310 nM in assay [5] (setting [6]).

For the sequence FAYVMNIER, the dissociation constant Kd amounted to 0.38 nM in assay [1] (setting [6]); 4340 nM in assay [2] (setting [6]); 12.5 nM in assay [3] (setting [6]); 65.5 nM in assay [4] (setting [6]); 37.2 nM in assay [5] (setting [6]).

Regarding SVSAKQLRTR, the Kd in assay [1] (setting [6]) was 148 nM; in assay [2] (setting [6]) it was 168 nM; in assay [3] (setting [6]) it was 5590 nM; in assay [4] (setting [6]), 90.8 nM; in assay [5] (setting [6]), 700 nM.

Turning to YTISSESLVY, the dissociation constant Kd in assay [1] (setting [6]) was 21.4 nM; in assay [2] (setting [6]) it was 831 nM; in assay [3] (setting [6]), at least 70000 nM; in assay [4] (setting [6]) it was 31.8 nM; in assay [5] (setting [6]) it was at least 27900 nM.

As to TIISEEYLSK, the equilibrium dissociation constant (Kd) came out at 16.6 nM in assay [1] (setting [6]); 39.5 nM in assay [2] (setting [6]); 8850 nM in assay [3] (setting [6]); 1.74 nM in assay [4] (setting [6]); 6710 nM in assay [5] (setting [6]).

Take TQWSLFFFVY: the Kd was found to be 6710 nM in assay [1] (setting [7]); 2510 nM in assay [2] (setting [7]); 1370 nM in assay [3] (setting [7]); 358 nM in assay [4] (setting [7]); 1580 nM in assay [5] (setting [7]).

For the sequence RLCLFDRYFK, the dissociation constant (Kd) was determined as 861 nM in assay [1] (setting [7]); 23.8 nM in assay [2] (setting [7]); 1950 nM in assay [3] (setting [7]); 56.5 nM in assay [4] (setting [7]); 46.1 nM in assay [5] (setting [7]).

In the case of TAKEVALLR, the results for the equilibrium dissociation constant (Kd) in assay [1] (setting [8]) and in assay [3] (setting [8]) were 75.1 nM and 17.3 nM, respectively.

For the sequence VVGAGGVGK, the Kd was found to be 125 nM in assay [2] (source organism: Homo sapiens) and 90.6 nM in assay [4] (source organism: Homo sapiens).

Turning to STQSVLCVKK, the dissociation constant (Kd) in assay [1] (setting [6]) is 3.52 nM; in assay [2] (setting [6]) it was 118 nM; in assay [4] (setting [6]) it was 0.157 nM; in assay [5] (setting [6]) it was 180 nM.

GSCVTTMAK: the Kd in assay [4] (setting [9]) was determined as 115 nM.

Consider GQGQNSADPK, for which the dissociation constant Kd in assay [1] (setting [7]) was at least 70200 nM; in assay [3] (setting [7]) it was at least 70000 nM.

Turning to SQLAKRFSK, the dissociation constant (Kd) in assay [4] (setting [10]) was 49.9 nM.

For the sequence MTIIGRRLQR, the equilibrium dissociation constant (Kd) in assay [1] (setting [8]) was found to be 10.5 nM; in assay [3] (setting [8]) it was 32.7 nM; in assay [5] (setting [8]), 15.1 nM.

In the case of ALNDMGKVRK, the Kd in assay [2] (setting [9]) stood at 36.5 nM.

Take TVGPWHLGK: the Kd in assay [2] (setting [8]) amounted to 17 nM; in assay [4] (setting [8]), 24.5 nM.

KSAAIDGEYR: the Kd in assay [1] (setting [10]) was found to be 134 nM; in assay [5] (setting [10]) it was 4.04 nM.

Take AQRRGRVGR: in assay [5] (setting [11]), the equilibrium dissociation constant (Kd) was 13.2 nM.

As to ISNMLNIMNR, the equilibrium dissociation constant (Kd) in assay [3] (setting [12]) is 157 nM; in assay [5] (setting [12]) it was at least 38100 nM.

Turning to AMCTNTFVLK, the dissociation constant Kd was 20.3 nM in assay [2] (setting [11]) and 20.9 nM in assay [4] (setting [11]).

Consider ITWIGMNSR, for which the dissociation constant Kd in assay [3] (setting [9]) stood at 35.4 nM; in assay [5] (setting [9]) it was 11.2 nM.

Turning to TAGPWHLGK, in assay [4] (setting [9]), the dissociation constant Kd turned out to be 66.1 nM.

For the sequence GIFTTNIWLK, the figures for the Kd in assay [2] (setting [10]) and in assay [4] (setting [10]) were 14.3 nM and 12.5 nM, respectively.

As to TIFAGHLKCR, in assay [1] (setting [10]), the Kd is 16.9 nM.

With HTWQKQTQR, the Kd in assay [3] (setting [11]) is 57.8 nM; in assay [5] (setting [11]), 2.88 nM.

Regarding LVTPSMTMR, the Kd in assay [5] (setting [11]) stood at 343 nM.

Take SYVMCTGSFK: the Kd came to 111 nM in assay [2] (setting [10]) and 17.7 nM in assay [3] (setting [10]).

For the sequence TTILTPMLR, the dissociation constant (Kd) came to 10.9 nM in assay [1] (setting [8]), 36.4 nM in assay [3] (setting [8]) and 387 nM in assay [4] (setting [8]).

As to ESNILDIDLR, the Kd in assay [1] (setting [9]) amounted to 160 nM.

On to ALNDTWKIEK, for which the Kd in assay [2] (setting [13]) turned out to be 60.3 nM; in assay [4] (setting [13]) it was 398 nM.

As for RMLINRFTMK, the Kd stood at 6.19 nM in assay [2] (setting [9]) and 334 nM in assay [4] (setting [9]).

As for MTATPPGSR, in assay [1] (setting [9]), the Kd was 18.4 nM.

Consider LVEYGTVVNK, for which the equilibrium dissociation constant (Kd) in assay [1] (setting [6]) came out at 212 nM.

For the sequence IALGLMALK, the dissociation constant Kd in assay [4] (setting [11]) was 42.7 nM.

For the sequence EVYTQLCDHR, the Kd in assay [1] (setting [11]) was determined as 14.3 nM.

As to SIMKNTTNTR, the Kd in assay [1] (setting [9]) stood at 139 nM; in assay [5] (setting [9]), 672 nM.

As to WSYYCGGLK, in assay [2] (setting [9]), the Kd is 1.28 nM.

Consider MIRPQPMEHK, for which, in assay [2] (setting [10]), the dissociation constant Kd was found to be 8.89 nM.

On to LLLRKLTSK, for which the equilibrium dissociation constant (Kd) in assay [2] (setting [9]) came out at 28.8 nM.

Take MALFQPANK: the equilibrium dissociation constant (Kd) in assay [4] (source organism: Mammarenavirus juninense) was found to be 48 nM.
